Source: patent WO2001072771A2
No end group written: not given here.

Columns and labels:
[1] = molecular target: soluble IGF-1 receptor (human) (UniProt P08069); experiment: phage ELISA
[2] = molecular target: soluble human insulin receptor (IR-Fc) (human) (UniProt P06213); experiment: phage ELISA

| ratio over background [1] | ratio over background [2] | Binder |
| --- | --- | --- |
| 10 | 1.4 | EGSGFYGYFFSLLGLQG [NNRPγ-4-A9-IR] |
| 6.2 | 0.9 | QGNVLDFYGWIGRLLAKQGSD [20E2B-3-D12-IGFR] |
| 9.7 | 0.8 | YSCGDGFYSLLSDLLGGQFRC [20E2B-4-H12-IGFR] |
| 17.3 | 2.2 | AQPCGGFYGLLEQLVGRSVCD [20E2B-4-F10-IGFR] |
| 10.9 |  | IIGGFYSYFNSVLRLGT [NNRPγ-4-A1-IR] |
| 4.5 | 0.6 | RQGTGSFYLMLEQLLVGARGP [20E2B-4-G11-IGFR] |
| 6.3 | 1.3 | RFDPFYSYFVNLLGASA [NNRPγ-4-A7-IR] |
| 14.7 |  | QPDHSYFYSLLQELVGSEERL [20E2B-4-F9-IGFR] |
| 5.2 | 0.9 | RCQGTGFYTCIQELIGFGDPD [20E2B-4-H9-IGFR] |
| 5.3 | 0.9 | PAGPCGFYCGLGLLLHGDQSP [20E2B-4-H8-IGFR] |
| 6 | 0.8 | VATSQGFYSGLSELLQGGGNV [20E2B-3-E12-IGFR] |
| 7.3 | 0.8 | PVGVQGFYEGLSRLVLGRGGW [20E2B-4-F8-IGFR] |
| 17.7 |  | GGTEVDFYRALERLVRGQLGL [20E2B-3-D8-IGFR] |
| 25.2 |  | LQPCSGFYECIERLIGVKLSG (not fully specified (bridges); cysteine pairing not given here) [20E2Bβ-4-G7-IR] |

Continued, binder first:

| Binder | ratio over background [1] | ratio over background [2] |
| --- | --- | --- |
| RGMKEEVLVGGSTDPFYHKLSELLQGS [B6Hα-3-F11-IR] | 18.7 |  |
| ASSASGFYELLQRLAGLGLEV [20E2B-3-C4-IGFR] | 20.4 | 3.3 |
| RGKTAAVIVGRPADPFYHKLSELLQGG [B6Hα-3-E8-IR] | 5.3 | 1.1 |
| LSVALSFYDALGQLVAGEGRW [20E2A-3-A12-IGFR] | 4.3 |  |
| AGSVTSFYDAMEQLVATGTSA [20E2A-3-A4-IGFR] | 2.5 |  |
| RCEEKQAEVGPSSDPFYHKMSELLGCR [B6Hα-3-E9-IR] | 24.2 |  |
| GCITAENGAGDPFYHKLSELGGCS [B6Hα-1-B3-IR] | 3.2 |  |
| DSVGDNFYQLLESLVGGHGVG [20E2B-3-D6-IGFR] | 17.8 | 2.6 |
| YRGMVLGRISGGAGKAASERPARIGQKVSAVNFYDWFV [A6L-0-H3-IR] | 26 |  |
| RGAVAGFHDQFYDWFDRQVSRVHKFG [H2CA-4-H9-IGFR] | 5.6 |  |
| IWATGDFYRLLSQLVMGRVGT [20E2B-2-B8-IGFR] | 5.7 | 0.8 |
| GCWEWQKWHGASDPFYHKLSELGGCS [B6Hα-3-F10-IR] | 8.8 |  |
| QPAPDGFYSALMKLIGRGGVS [20E2B-3-C8-IGFR] | 15.6 |  |
| NSRDGGFYLQLERLLGFPVTG [20E2B-3-D4-IGFR] | 7.9 | 0.8 |
| YRGMLVLGRSSDGAGKVAFERPARIGQTVFAVNFYDWFV [A6L-0-E6-IR] | 31 |  |
| ICTGQGFYQVLCGLLRGTSAR [20E2B-2-B3-IGFR] | 5.3 | 0.7 |
| NVFVSFYDAIDQLVCQRIGC [20E2A-4-G11-IGFR] | 3.3 |  |
| SSYGCDGFYLMLFSLGLVASQELEC [20C-3-A1-IGFR] | 20.8 |  |
| LSSDGQFYRANLLLQGSAGR [20E2B-2-B7-IGFR] | 6.1 | 0.9 |
| RFSTDGFYQYLLALVGGGPVG [20E2B-1-A11-IGFR] | 9.5 | 1 |
| GGTKAVAKVGTRDDPFYHKLSELLQGS [B6Hα-4-G8-IR] | 6.1 |  |
| SGAKVIWTGDSGDPFYHKLSELLQGS [B6Hα-2-C10-IR] | 5.8 | 1.1 |
| VGYQGQGDENFYDWFIRQVSGRLGVQ [H2CA-4-F5-IGFR] | 9.7 | 0.8 |
| VGTVAGFYDAIAQLVARASRV [20E2A-3-C7-IGFR] | 5.4 | 1.1 |
| SRVAATKEKRPSDDPFYHKLSELLQGS [B6Hα-3-F7-IR] | 3.1 |  |
| FFYRCLSRLLGGQLGSRLGLSCIGD [20C-3-E4-IGFR] | 7.7 | 1.3 |
| AVRATRFDEAFYDWFVRQISDGQGNK [H2CA-4-F6-IGFR] | 7.3 | 1.1 |
| DRAFYNGLRDLVGAVYGAWD [R20 -4-20C11-IR] | 30.8 | 3 |
